T1: Recombinant mouse CD40-Fc (1215-CD, R&D systems) (mouse, UniProt P27512 24-193, limits assumed)
T1 construct: Bought protein; also called recombinant CD40 protein
T1 sequence (looked up): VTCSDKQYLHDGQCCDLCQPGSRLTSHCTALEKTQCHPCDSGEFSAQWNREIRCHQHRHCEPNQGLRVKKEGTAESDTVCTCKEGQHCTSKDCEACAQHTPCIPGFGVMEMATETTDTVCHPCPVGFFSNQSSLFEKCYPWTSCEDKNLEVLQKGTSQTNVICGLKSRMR

T2: Human CS1-Fc fusion protein (CS1 ectodomain S23~M226 with C-terminal human IgG1 Fc) (human, UniProt Q9NQ25 23-226)
T2 construct: range 23-226; Made in-house in Expi293 cells; also called recombinant CS1-Fc fusion protein; not shown: C-terminal human IgG1 Fc
T2 sequence (looked up): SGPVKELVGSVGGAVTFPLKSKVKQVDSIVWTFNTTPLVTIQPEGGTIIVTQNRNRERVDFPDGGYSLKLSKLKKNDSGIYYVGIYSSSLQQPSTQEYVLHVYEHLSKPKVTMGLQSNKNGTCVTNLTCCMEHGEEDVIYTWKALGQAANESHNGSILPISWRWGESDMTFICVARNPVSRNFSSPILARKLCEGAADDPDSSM

B1: C1C02-Cκ (anti-mouse CD40 scFv clone C1C02 fused with human immunoglobulin kappa light chain constant region) (scFv)
scFv: QAALTQPSSVSANPGETVKITCSGGSSNYGWYQQKSPGSAPATVIYDNTNRPSDIPSRFSGALSGSTATLTITGVQVEDEAVYYCGGYDSGTYAGIFGAGTTLTVLGQSSRSSGGGGSSGGGGSAVTLDESGGGLQTPGGTLSLACKGSGFTFSSVNMQWVRQAPGKGLEWVAGISSDGSYTAYGAAVKGRATISRDNGQSTVRLQLNNLRAEDTAIYYCAKIAGGYYWDAAYSIDMWGHGTEVIVSSTSGQAGQRTVAAPSVFIFPPSDEQLKSGTASVVCLLNNFYPREAKVQWKVDNALQSGNSQESVTEQDSKDSTYSLSSTLTLSKADYEKHKVYACEVTHQGLSSPVTKSFNRGES
notes: also called C1C02 scFv; anti-mouse CD40 antibody (clone C1C02)
B2: hCS1(#57)-Ck-His (anti-human CS1 scFv-Cκ-(G4S)2-6×His, clone #57) (scFv)
scFv: QAALTQPSSVSANLGETVKITCSGSSGNNYGWYQQKSPGSAPVTVIYYNDNRPSDIPSRFSGSKSGSTHTLTITGVQADDEAVYFCGSGDSSSNPGIFGAGTTLTVLGQSSRSSGGGGSSGGGGSAVTLDESGGGLQTPGGALSLVCKASGFTFSSHGMAWVRQAPGKGLEWVAGIDDSGSSTGYGSAVKGRATISRDNGQSTVRLQLNNLRAEDTGIYYCAKAYDTGCGWAGYNVYDCSADQIDAWGHGTEVIVSSTSGQAGQRTVAAPSVFIFPPSDEQLKSGTASVVCLLNNFYPREAKVQWKVDNALQSGNSQESVTEQDSKDSTYSLSSTLTLSKADYEKHKVYACEVTHQGLSSPVTKSFNRGESGGGGSGGGGSHHHHHH
notes: also called #57 clone; His tagged CS1 adaptor
B3: 2B1-Cκ (anti-human CD40 scFv clone 2B1 fused with human Cκ) (scFv)
scFv: QAALTQPSSVSANPGETVKITCSGGDSYAGSYYYGWFQQKAPGSAPVTVIYYNDKRPSDIPSRFSGSTSGSTSTLTITGVQAEDEAVYYCGSIDTSSGTGIFGAGTTLTVLGQSSRSSGGGGSSGGGGSAVTLDESGGGLQTPGGALSLVCKGSGFTFSSYQMFWVRQAPGKGLEYVAEISGSGLSTWYAPAVKGRATISRDNGQSTVRLQLNNLRAEDTGTYYCAKAAGSCGVGTCAGGIVDGIDAWGHGTEVIVSSTSGQAGQRTVAAPSVFIFPPSDEQLKSGTASVVCLLNNFYPREAKVQWKVDNALQSGNSQESVTEQDSKDSTYSLSSTLTLSKADYEKHKVYACEVTHQGLSSPVTKSFNRGES
notes: also called 2B1-Ck; free 2B1
B4: hCS1(#87)-Ck-His (anti-human CS1 scFv-Cκ-(G4S)2-6×His, clone #87) (scFv)
scFv: QAALTQPSSVSANPGETVKITCSGGGSYYGWYQQKSPGSAPVTVIYGNDKRPSNIPSRFSGSKSGSTATLTITGVQVEDEAVYFCGGWDSTDAGTFGAGTTLTVLGQSSRSSGGGGSSGGGGSAVTLDESGGGLQTPGGGLSLVCKASGFTFSSHGMAWVRQAPGKGLEWVAGIDDSGSSTGYGSAVKGRATISRDNGQSTVRLQLNNLRAEDTGIYYCAKAYDTGCGWAGYNVYDCSADQIDAWGHGTEVIVSSTSGQAGQRTVAAPSVFIFPPSDEQLKSGTASVVCLLNNFYPREAKVQWKVDNALQSGNSQESVTEQDSKDSTYSLSSTLTLSKADYEKHKVYACEVTHQGLSSPVTKSFNRGESGGGGSGGGGSHHHHHH
notes: also called #87 clone; His tagged CS1 adaptor
B5: 2E1-Cκ (anti-human CD40 scFv clone 2E1 fused with human Cκ) (scFv)
scFv: QAALTQPSSVSANPGETVKITCSGSSSSYYGWYQQKAPGSAPVTLIYANDKRPSDIPSRFSGSKSGSTHTLTITGVQADDEAVYFCGSADSTDSGFGAGTTLTVLGQSSRSSGGGGSSGGGGSAVTLDESGGGLQTPGGALSLVCKASGFSFSSYSMHWVRQAPGKGLEFVAAISSDGSRYTHYGPAVKGRATISRDNGQSTVRLQLNNLRPEDTGTYYCAKTSNTWTWNTGWIDAWGHGTEVIVSSTSGQAGQRTVAAPSVFIFPPSDEQLKSGTASVVCLLNNFYPREAKVQWKVDNALQSGNSQESVTEQDSKDSTYSLSSTLTLSKADYEKHKVYACEVTHQGLSSPVTKSFNRGES
notes: also called 2E1-Ck

Tests used:
[1] = biological target: Mouse CD40 on cells (A20 lymphoma cells, EL4-mCD40 cells, peritoneal macrophages, splenic dendritic cells) (mouse) (UniProt P27512); assay: flow cytometry on A20 cells, anti-human Ck-APC (axis hCk); negative control
Mouse CD40 on cells (A20 lymphoma cells, EL4-mCD40 cells, peritoneal macrophages, splenic dendritic cells) (mouse), sequence (P27512 20-289): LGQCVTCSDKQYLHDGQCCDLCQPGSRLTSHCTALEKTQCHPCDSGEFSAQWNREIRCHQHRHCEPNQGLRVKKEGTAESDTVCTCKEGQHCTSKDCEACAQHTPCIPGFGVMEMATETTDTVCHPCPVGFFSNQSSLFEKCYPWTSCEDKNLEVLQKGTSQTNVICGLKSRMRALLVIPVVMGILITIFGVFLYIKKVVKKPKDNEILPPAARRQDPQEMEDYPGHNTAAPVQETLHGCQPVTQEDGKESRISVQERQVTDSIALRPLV

[2] = biological target: T3, Human CD40 on cells (Raji, Daudi, IM-9) (human, UniProt P25942 21-277); assay: flow cytometry on Raji cells, 1 ug/1x10^5 cells, anti-human Ck-APC (axis hCk); negative control
T3 construct: whole, on cells; also called cell surface CD40; hCD40
T3 sequence (P25942 21-277): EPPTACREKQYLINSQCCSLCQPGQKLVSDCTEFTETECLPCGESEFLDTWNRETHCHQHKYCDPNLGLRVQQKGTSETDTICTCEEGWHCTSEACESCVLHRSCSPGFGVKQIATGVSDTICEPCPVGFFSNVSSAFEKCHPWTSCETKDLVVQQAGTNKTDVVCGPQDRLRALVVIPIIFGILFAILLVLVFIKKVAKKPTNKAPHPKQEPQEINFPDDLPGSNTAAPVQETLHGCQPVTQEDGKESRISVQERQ

[3] = biological target: T1, Recombinant mouse CD40-Fc (1215-CD, R&D …); assay: ELISA, mouse CD40-Fc coated at 2.5 ug/ml, serial dilutions 0.0001 to 1000 nM, anti-human Ck-HRP, absorbance 450 nm
Description: FIG. 8A: Recombinant mouse CD40-Fc (2.5 μg/ml) was coated in ELISA plate and the serial diluents of C1C02-Cκ or the irrelevant scFv-Cκ were loaded. The bound scFv-Cκs were detected by a secondary anti-human Cκ-HRP followed by a chromogenic reaction with TMB substrate. The absorbance was measured at 450 nm. […] FIG. 8B: A20, a CD40-expressing mouse B lymphoma cell line, was stained with C1C02-Cκ (1 μg/1×10⁵ cells) or the irrelevant scFv-Cκ and then stained with a secondary anti-human Cκ-APC. The binding intensity of the scFv-Cκs was analyzed by flow cytometry. The numbers are the mean fluorescence intensities (MFIs) of the binding.
(§1) White leghorn chickens were immunized four times with recombinant mouse CD40 (50324-M08H, Sino Biological, China) or human CD40 (10774-H08H, Sino Biological) protein. Total RNA from the bursa of Fabricius, spleen, and bone marrow was isolated using TRIzol reagent (Invitrogen, USA), and cDNA was synthesized using a SuperScript III first-strand cDNA synthesis kit with oligo (dT) primers (Invitrogen) according to the manufacturer's instructions. The scFv phage-display libraries were constructed from the cDNAs as described previously⁵¹. […] The binding of the scFv-Cκs was measured with the secondary antibody (anti-human Cκ-HRP; AP502P, Sigma-Aldrich, USA).

[4] = biological target: T4, BSA (bovine serum albumin) (bovine, UniProt P02769 25-607); assay: serial dilution ELISA on wells with blocking only (the legend calls this the binding to BSA), OD at 405 nm
T4 construct: Control antigen in the phage ELISA
T4 sequence (P02769 25-607 limits assumed): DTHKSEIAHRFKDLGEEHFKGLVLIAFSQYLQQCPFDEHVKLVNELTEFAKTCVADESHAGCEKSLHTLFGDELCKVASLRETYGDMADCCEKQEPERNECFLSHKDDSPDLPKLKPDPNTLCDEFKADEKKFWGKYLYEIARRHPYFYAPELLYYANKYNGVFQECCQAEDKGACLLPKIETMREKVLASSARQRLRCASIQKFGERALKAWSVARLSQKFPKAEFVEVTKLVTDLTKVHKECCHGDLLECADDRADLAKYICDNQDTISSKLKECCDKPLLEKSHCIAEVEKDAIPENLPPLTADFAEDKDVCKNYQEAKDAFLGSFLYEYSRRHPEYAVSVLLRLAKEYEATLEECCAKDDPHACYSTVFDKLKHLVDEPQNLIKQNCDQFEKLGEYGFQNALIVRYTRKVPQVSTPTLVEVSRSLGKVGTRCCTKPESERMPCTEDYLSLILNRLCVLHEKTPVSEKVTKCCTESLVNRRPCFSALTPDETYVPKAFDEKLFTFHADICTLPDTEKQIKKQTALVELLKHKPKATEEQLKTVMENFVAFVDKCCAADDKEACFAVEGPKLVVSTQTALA
Description: (§2) FIGS. 20A-C The individual specific binders are screened by ELISA and 23 different scFv clones were further characterized by sequencing. FIG. 20A: Reactivity of the selected scFv clones to human CS1 was assayed by measuring absorbance at 405 nm. The individual scFv clones were reactive to human CS1-His (▪) and human CS1-Fc ( ), but not hFc ( ) or BSA (□).Binding activity determination of selected clones specific to human CS1. The three clones selected from the phage ELISA were verified in a serial dilution ELISA after expression and purification as a form of scFv-Cκ-His. The y-axis of the graphs depicts the signal for serial dilutions of the antibodies, and the x-axis depicts the antibody concentration in the wells of the dilution series. The binding to human CS1-Fc is indicated as red, while the binding to BSA is indicated as blue. […] FIG. 20B: Binding activity of anti-human CS1 cFv-Cκ-His on J558/CS1 or J558 cells measured using flow cytometry. […] Binding of scFv adapters were detected by adding APC conjugated anti-human Cκ antibodies or APC conjugated anti-His tag secondary antibodies. FIG. 20C: Binding activity of anti-human CS1 scFv-Cκ-His on MM1.s cells measured using flow cytometry. Binding of the antibodies were detected by adding either an APC conjugated anti-human Cκ antibodies, or an APC conjugated anti-His tag secondary antibodies, respectively. […]

[5] = biological target: T2, Human CS1-Fc fusion protein (CS1 …); assay: serial dilution ELISA of purified scFv-Cκ-His on coated hCS1-Fc, OD at 405 nm, detection with anti-human Cκ-HRP
Description: as §2

[6] = biological target: T5, Recombinant human CD40-Fc (1493-CDB, R&D systems) (human, UniProt P25942 21-193); assay: ELISA, human CD40-Fc coated at 2.5 ug/ml, serial dilutions 0.0001 to 1000 nM, anti-human Ck-HRP, absorbance 450 nm
T5 construct: Bought protein; also called human CD40 recombinant proteins
T5 sequence (P25942 21-193 limits assumed): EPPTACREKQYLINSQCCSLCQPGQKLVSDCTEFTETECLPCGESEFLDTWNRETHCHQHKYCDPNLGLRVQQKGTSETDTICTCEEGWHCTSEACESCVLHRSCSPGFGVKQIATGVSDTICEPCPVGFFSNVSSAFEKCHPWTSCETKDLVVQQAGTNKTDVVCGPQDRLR
Description: FIG. 13A: Recombinant human CD40-Fc (2.5 μg/ml) was coated in ELISA plate and the serial diluents of 2B1-Ck, 2E1-Ck and irrelevant scFv antibody-Ck were loaded. The bound scFv-Cκs were detected by a secondary anti-human Cκ-HRP followed by chromogenic reaction with TMB substrate. The absorbance was measured at 450 nm. […] FIG. 13B: Raji, a CD40-expressing human B lymphoma cell line, was stained with 2B1-Ck, 2E1-Ck or the irrelevant scFv-Cκ (1 μg/1×10⁵ cells), and then stained with secondary anti-human Ck-APC. The binding intensity of the scFv-Cκs were analyzed by flow cytometry. The numbers are mean fluorescence intensities (MFIs) of the binding.
as §1

| Molecule | binding result [4] | EC50 [5] | EC50 [6] | also measured |
| --- | --- | --- | --- | --- |
| Irrelevant Ab-Ck (scFv) |  |  |  | MFI [1]: 24.6; MFI [2]: 3.78 |
| B1 |  |  |  | EC50 [3]: 1.28 nM |
| B2 | no binding | 9.3 nM |  |  |
| B3 |  |  | 0.365 nM |  |
| B4 | no binding | 2.9 nM |  |  |
| B5 |  |  | 1.06 nM |  |
